In the supplement of paper PMC9116672:
± gives the standard deviation of the averaged measurements or the uncertainty stated by the source.

How the values were obtained:
[1] = duplex formation entropy ΔS (Van't Hoff fit of HRM Tm); higher = smaller entropy loss on duplex formation; conditions: temperature for dG: 50 °C, NaCl: 500 mM (unadjusted)
How it was run: (§1)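 Four replicate samples of each duplex, annealed 1:1 from phosphodiester or phosphorothioate strands (the latter mixed Rp/Sp), were melted at 1–20 μM in 1× NNE buffer (500 mM NaCl, pH 7.0) with 1× EvaGreen, heating from 37 to 97°C at 0.1°C/s on a LightCycler96. Tm is the peak of -dF/dT, and a linear Van't Hoff regression of 1/Tm against ln(CT/4) gives enthalpy, entropy and extrapolated free energy, with no salt adjustment and errors given as fit standard deviations. The free energy extrapolation is to 50°C.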

[2] = duplex melting temperature (HRM, EvaGreen); higher = more stable duplex
How it was run: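 Complementary DNA strands (phosphodiester or phosphorothioate, Rp/Sp mixtures) were annealed 1:1 at 25 μM, then diluted to 1–20 μM duplex in NNE buffer (500 mM NaCl, pH 7.0) with 1× EvaGreen. A LightCycler96 read fluorescence (470/514 nm) while heating from 37°C to 97°C at 0.1°C/s. Melting temperature was the peak of the negative dF/dT curve from the instrument software. Four replicates were prepared; those lacking a clear peak were excluded and the rest averaged.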

[3] = duplex formation enthalpy ΔH (Van't Hoff fit of HRM Tm); higher = less exothermic duplex formation; conditions: temperature for dG: 50 °C, NaCl: 500 mM (unadjusted)
How it was run: as §1

[4] = duplex formation free energy ΔG50 (Van't Hoff fit of HRM Tm); higher = less stable duplex; conditions: temperature for dG: 50 °C, NaCl: 500 mM (unadjusted)
How it was run: as §1

[5] = backbone: PO-PO (both strands phosphodiester DNA)
[6] = backbone: PS-PO (listed strand fully phosphorothioate, complement phosphodiester)
[7] = backbone: PS-PS (both strands fully phosphorothioate)
[8] = duplex concentration 1 µM, backbone: PS-PO (listed strand fully phosphorothioate, complement phosphodiester)
[9] = duplex concentration 1 µM, backbone: PS-PS (both strands fully phosphorothioate)
[10] = duplex concentration 2.5 µM, backbone: PO-PO (both strands phosphodiester DNA)
[11] = duplex concentration 2.5 µM, backbone: PS-PO (listed strand fully phosphorothioate, complement phosphodiester)
[12] = duplex concentration 2.5 µM, backbone: PS-PS (both strands fully phosphorothioate)
[13] = duplex concentration 5 µM, backbone: PO-PO (both strands phosphodiester DNA)
[14] = duplex concentration 5 µM, backbone: PS-PO (listed strand fully phosphorothioate, complement phosphodiester)
[15] = duplex concentration 5 µM, backbone: PS-PS (both strands fully phosphorothioate)
[16] = duplex concentration 7.5 µM, backbone: PO-PO (both strands phosphodiester DNA)
[17] = duplex concentration 7.5 µM, backbone: PS-PO (listed strand fully phosphorothioate, complement phosphodiester)
[18] = duplex concentration 7.5 µM, backbone: PS-PS (both strands fully phosphorothioate)
[19] = duplex concentration 10 µM, backbone: PO-PO (both strands phosphodiester DNA)
[20] = duplex concentration 10 µM, backbone: PS-PO (listed strand fully phosphorothioate, complement phosphodiester)
[21] = duplex concentration 10 µM, backbone: PS-PS (both strands fully phosphorothioate)
[22] = duplex concentration 15 µM, backbone: PO-PO (both strands phosphodiester DNA)
[23] = duplex concentration 15 µM, backbone: PS-PO (listed strand fully phosphorothioate, complement phosphodiester)
[24] = duplex concentration 15 µM, backbone: PS-PS (both strands fully phosphorothioate)
[25] = duplex concentration 20 µM, backbone: PO-PO (both strands phosphodiester DNA)
[26] = duplex concentration 20 µM, backbone: PS-PO (listed strand fully phosphorothioate, complement phosphodiester)
[27] = duplex concentration 20 µM, backbone: PS-PS (both strands fully phosphorothioate)
[28] = duplex concentration 1 µM, backbone: PO-PO (both strands phosphodiester DNA)

## CCCAGGCCTCGGATTTA
[1]; [5]
  duplex formation entropy ΔS: -206 ± 6.1 cal/mol/K
[1]; [6]
  duplex formation entropy ΔS: -191 ± 3.5 cal/mol/K
[1]; [7]
  duplex formation entropy ΔS: -205 ± 6.3 cal/mol/K
[2]; [8]
  duplex melting temperature: 61.72 ± 0.53 °C
[2]; [9]
  duplex melting temperature: 56.81 ± 0.12 °C
[2]; [10]
  duplex melting temperature: 71.02 ± 0.086 °C
[2]; [11]
  duplex melting temperature: 64.52 ± 0.19 °C
[2]; [12]
  duplex melting temperature: 59.77 ± 0.087 °C
[2]; [13]
  duplex melting temperature: 73.09 ± 0.13 °C
[2]; [14]
  duplex melting temperature: 66.7 ± 0.3 °C
[2]; [15]
  duplex melting temperature: 61.69 ± 0.093 °C
[2]; [16]
  duplex melting temperature: 74.25 ± 0.19 °C
[2]; [17]
  duplex melting temperature: 67.99 ± 0.22 °C
[2]; [18]
  duplex melting temperature: 62.78 ± 0.14 °C
[2]; [19]
  duplex melting temperature: 75.215 ± 0.05 °C
[2]; [20]
  duplex melting temperature: 68.759 ± 0.049 °C
[2]; [21]
  duplex melting temperature: 63.54 ± 0.15 °C
[2]; [22]
  duplex melting temperature: 76.343 ± 0.055 °C
[2]; [23]
  duplex melting temperature: 70.047 ± 0.069 °C
[2]; [24]
  duplex melting temperature: 64.73 ± 0.092 °C
[2]; [25]
  duplex melting temperature: 77.12 ± 0.096 °C
[2]; [26]
  duplex melting temperature: 71.04 ± 0.25 °C
[2]; [27]
  duplex melting temperature: 65.39 ± 0.35 °C
[3]; [5]
  duplex formation enthalpy ΔH: -80.8 ± 2.1 kcal/mol
[3]; [6]
  duplex formation enthalpy ΔH: -74.2 ± 1.2 kcal/mol
[3]; [7]
  duplex formation enthalpy ΔH: -77.5 ± 2.1 kcal/mol
[4]; [5]
  duplex formation free energy ΔG50: -14.1 ± 0.15 kcal/mol
[4]; [6]
  duplex formation free energy ΔG50: -12.37 ± 0.061 kcal/mol
[4]; [7]
  duplex formation free energy ΔG50: -11.41 ± 0.078 kcal/mol

## ACTCGCTCTACCTTAAT
[1]; [5]
  duplex formation entropy ΔS: -175 ± 9.7 cal/mol/K
[1]; [6]
  duplex formation entropy ΔS: -176 ± 6.4 cal/mol/K
[1]; [7]
  duplex formation entropy ΔS: -167 ± 6.3 cal/mol/K
[2]; [28]
  duplex melting temperature: 60.43 ± 0.52 °C
[2]; [9]
  duplex melting temperature: 46.7 ± 0.53 °C
[2]; [10]
  duplex melting temperature: 62.88 ± 0.38 °C
[2]; [11]
  duplex melting temperature: 55.24 ± 0.45 °C
[2]; [12]
  duplex melting temperature: 50.2 ± 0.22 °C
[2]; [13]
  duplex melting temperature: 65.23 ± 0.53 °C
[2]; [14]
  duplex melting temperature: 57.69 ± 0.21 °C
[2]; [15]
  duplex melting temperature: 52.44 ± 0.085 °C
[2]; [16]
  duplex melting temperature: 66.57 ± 0.5 °C
[2]; [17]
  duplex melting temperature: 59.03 ± 0.074 °C
[2]; [18]
  duplex melting temperature: 53.72 ± 0.14 °C
[2]; [19]
  duplex melting temperature: 67.63 ± 0.18 °C
[2]; [20]
  duplex melting temperature: 59.946 ± 0.043 °C
[2]; [21]
  duplex melting temperature: 54.68 ± 0.21 °C
[2]; [22]
  duplex melting temperature: 69.17 ± 0.14 °C
[2]; [23]
  duplex melting temperature: 61.16 ± 0.2 °C
[2]; [24]
  duplex melting temperature: 55.75 ± 0.19 °C
[2]; [25]
  duplex melting temperature: 70.4 ± 0.34 °C
[2]; [26]
  duplex melting temperature: 62.06 ± 0.28 °C
[2]; [27]
  duplex melting temperature: 56.8 ± 0.2 °C
[3]; [5]
  duplex formation enthalpy ΔH: -68.3 ± 3.3 kcal/mol
[3]; [6]
  duplex formation enthalpy ΔH: -67 ± 2.1 kcal/mol
[3]; [7]
  duplex formation enthalpy ΔH: -63.1 ± 2 kcal/mol
[4]; [5]
  duplex formation free energy ΔG50: -11.8 ± 0.16 kcal/mol
[4]; [6]
  duplex formation free energy ΔG50: -10.27 ± 0.06 kcal/mol
[4]; [7]
  duplex formation free energy ΔG50: -9.165 ± 0.027 kcal/mol

## TAATTATACGAGTAGTTTCTGTCCTG
[1]; [5]
  duplex formation entropy ΔS: -340 ± 28 cal/mol/K
[1]; [6]
  duplex formation entropy ΔS: -312 ± 13 cal/mol/K
[1]; [7]
  duplex formation entropy ΔS: -245 ± 4.8 cal/mol/K
[2]; [28]
  duplex melting temperature: 71.48 ± 0.47 °C
[2]; [8]
  duplex melting temperature: 62.1 ± 1.3 °C
[2]; [9]
  duplex melting temperature: 53.5 ± 0.9 °C
[2]; [10]
  duplex melting temperature: 72.48 ± 0.47 °C
[2]; [11]
  duplex melting temperature: 63.7 ± 0.66 °C
[2]; [12]
  duplex melting temperature: 55.8 ± 0.57 °C
[2]; [13]
  duplex melting temperature: 73.57 ± 0.43 °C
[2]; [14]
  duplex melting temperature: 65.23 ± 0.59 °C
[2]; [15]
  duplex melting temperature: 57.27 ± 0.51 °C
[2]; [16]
  duplex melting temperature: 74.63 ± 0.29 °C
[2]; [17]
  duplex melting temperature: 65.94 ± 0.5 °C
[2]; [18]
  duplex melting temperature: 58.41 ± 0.21 °C
[2]; [19]
  duplex melting temperature: 75.37 ± 0.084 °C
[2]; [20]
  duplex melting temperature: 66.63 ± 0.26 °C
[2]; [21]
  duplex melting temperature: 59.23 ± 0.13 °C
[2]; [22]
  duplex melting temperature: 76.277 ± 0.049 °C
[2]; [23]
  duplex melting temperature: 67.43 ± 0.14 °C
[2]; [24]
  duplex melting temperature: 60.07 ± 0.12 °C
[2]; [25]
  duplex melting temperature: 77.05 ± 0.094 °C
[2]; [26]
  duplex melting temperature: 67.855 ± 0.049 °C
[2]; [27]
  duplex melting temperature: 60.84 ± 0.17 °C
[3]; [5]
  duplex formation enthalpy ΔH: -127 ± 9.7 kcal/mol
[3]; [6]
  duplex formation enthalpy ΔH: -115 ± 4.5 kcal/mol
[3]; [7]
  duplex formation enthalpy ΔH: -89.9 ± 1.6 kcal/mol
[4]; [5]
  duplex formation free energy ΔG50: -17.6 ± 0.68 kcal/mol
[4]; [6]
  duplex formation free energy ΔG50: -13.9 ± 0.21 kcal/mol
[4]; [7]
  duplex formation free energy ΔG50: -10.75 ± 0.039 kcal/mol
